1 protein from article PMC3386190, “The Rhoptry Proteins ROP18 and ROP5 Mediate Toxoplasma gondii Evasion of the Murine, But Not the Human, Interferon-Gamma Response” (PLoS Pathogens, 2012) can be followed below.

This data set deals with the molecule itself. Kind of data set: dynamic light scattering; 20 µM Irga6 with 10 mM GTP at 37°C in 50 mM Tris/5 mM MgCl2/2 mM DTT, in the presence or absence of 40 µM (His6)-MBP-tagged ROP5-CIII or (His6)-MBP; mean hydrodynamic radius over 35 minutes.

B1: Recombinant Irga6 (residues 1-413) (natural protein)
chain: MGQLFSSPKSDENNDLPSSFTGYFKKFNTGRKIISQEILNLIELRMRKGNIQLTNSAISDALKEIDSSVLNVAVTGETGSGKSSFINTLRGIGNEEEGAAKTGVVEVTMERHPYKHPNIPNVVFWDLPGIGSTNFPPNTYLEKMKFYEYDFFIIISATRFKKNDIDIAKAISMMKKEFYFVRTKVDSDITNEADGKPQTFDKEKVLQDIRLNCVNTFRENGIAEPPIFLLSNKNVCHYDFPVLMDKLISDLPIYKRHNFMVSLPNITDSVIEKKRQFLKQRIWLEGFAADLVNIIPSLTFLLDSDLETLKKSMKFYRTVFGVDETSLQRLARDWEIEVDQVEAMIKSPAVFKPTDEETIQERLSRYIQEFCLANGYLLPKNSFLKEIFYLKYYFLDMVTEDAKTLLKEICLRN
notes: immunity-related GTPase Irga6, mouse, residues 1-413; a TEV cleavage site stands between the tags and the protein; source: recombinant (Lim et al., submitted)
On to B1, for which the binding result is recorded as “binds”.
